The target of the data set is PHR1 S11A-His (UniProt Q94CL7 1-409, S11A). Description: EMSA; without SnRK1; 10 mM Tris-HCl pH 8.0, 100 mM NaCl, 10% glycerol, 2 mM DTT, 0.05% NP-40; 0.5 ug protein in 30 ul, 22 C, 30 min; 4.5% acrylamide gel, 0.5x TBE. Particulars: protein: recombinant; tags: His (pET28b(+)); chain copies: 2; label: 32P 5' end label on sense strand (T4 PNK); blunt. In general terms: Mobility shift assays separate free from complexed probe on a gel.
PHR1 S11A-His, sequence (Q94CL7 whole entry S11A): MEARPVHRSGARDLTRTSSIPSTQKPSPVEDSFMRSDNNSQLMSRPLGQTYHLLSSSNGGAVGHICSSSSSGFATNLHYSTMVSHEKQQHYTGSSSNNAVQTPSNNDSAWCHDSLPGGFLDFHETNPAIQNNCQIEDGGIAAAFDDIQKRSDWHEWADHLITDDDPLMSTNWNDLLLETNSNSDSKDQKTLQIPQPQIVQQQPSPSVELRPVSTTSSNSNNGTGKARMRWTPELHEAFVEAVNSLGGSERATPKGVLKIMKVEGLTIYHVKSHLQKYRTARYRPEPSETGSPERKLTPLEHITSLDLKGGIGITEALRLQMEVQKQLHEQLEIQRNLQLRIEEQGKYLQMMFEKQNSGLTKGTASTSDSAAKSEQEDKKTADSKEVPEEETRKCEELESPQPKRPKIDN

B1: AtIPS1 P1BS probe (dsDNA)
DNA 1: CAATTTTGGTAACGGCATATTCCATCGGATGATCCAAAATTCTCAAAA
DNA 2: TTTTGAGAATTTTGGATCATCCGATGGAATATGCCGTTACCAAAATTG
Regarding B1, the binding result was “binds”.

(Values after publication PMC10107491, “Phosphorylation of S11 in PHR1 negatively controls its transcriptional activity”.)
